Data from US20120094271A1, “SELECTING FOR COOPERATIVELY INTERACTING MOLECULES” (Arizona Board of Regents for and on behalf of Arizona State …, priority 2008, published 2012).

Key:
[1] = target: Beta-galactosidase (β-gal) (Escherichia coli, UniProt P00722); settings: ~12 uM peptide, ~3 nM β-gal
Procedure: (§1) Beta-galactosidase (β-gal) (˜3 nM, Alexa647 labeled, the target) was preincubated with a solution containing ˜12 uM of the peptide “[…]” (the ligand). […] The complex between β-gal and the peptide complex was incubated with a […] 10,000 random sequence peptides (the “test molecules”) bound to the surface of a glass slide in an ordered fashion. The incubation took place for two hours and the binding pattern of this was compared to the binding pattern using only the labeled enzyme and no ligand.

β-gal enzyme = β-gal enzyme (Escherichia coli, UniProt P00722); settings: ~12 uM peptide
Sequence of β-gal enzyme (P00722 2-1024): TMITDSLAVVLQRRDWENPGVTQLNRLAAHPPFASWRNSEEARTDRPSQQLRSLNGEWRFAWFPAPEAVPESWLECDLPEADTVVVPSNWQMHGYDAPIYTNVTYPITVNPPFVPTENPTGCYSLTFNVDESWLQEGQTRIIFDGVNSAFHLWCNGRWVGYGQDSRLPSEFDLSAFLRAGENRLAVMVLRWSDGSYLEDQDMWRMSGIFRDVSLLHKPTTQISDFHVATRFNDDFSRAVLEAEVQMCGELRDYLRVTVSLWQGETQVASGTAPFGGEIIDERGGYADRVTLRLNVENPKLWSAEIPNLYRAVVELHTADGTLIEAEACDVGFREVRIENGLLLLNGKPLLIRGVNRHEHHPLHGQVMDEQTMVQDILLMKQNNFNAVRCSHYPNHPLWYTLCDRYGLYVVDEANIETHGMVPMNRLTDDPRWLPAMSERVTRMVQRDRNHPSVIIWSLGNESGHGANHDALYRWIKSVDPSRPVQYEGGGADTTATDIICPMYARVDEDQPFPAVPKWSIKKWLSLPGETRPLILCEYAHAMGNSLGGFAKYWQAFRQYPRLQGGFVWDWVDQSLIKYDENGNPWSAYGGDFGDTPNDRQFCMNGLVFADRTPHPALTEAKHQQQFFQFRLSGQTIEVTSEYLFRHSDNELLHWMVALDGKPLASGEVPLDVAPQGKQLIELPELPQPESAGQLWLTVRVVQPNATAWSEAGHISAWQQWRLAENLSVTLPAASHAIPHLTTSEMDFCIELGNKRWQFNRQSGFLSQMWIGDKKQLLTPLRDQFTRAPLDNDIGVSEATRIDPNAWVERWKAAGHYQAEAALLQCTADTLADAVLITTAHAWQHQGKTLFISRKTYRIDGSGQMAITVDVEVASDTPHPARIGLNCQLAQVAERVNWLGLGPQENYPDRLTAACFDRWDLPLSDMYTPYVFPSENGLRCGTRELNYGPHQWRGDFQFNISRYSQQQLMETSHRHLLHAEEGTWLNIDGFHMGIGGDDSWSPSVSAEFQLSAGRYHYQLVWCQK
Procedure: as §1

[2] = isoelectric point (pI) of peptides; assay type: physicochemical

Sequence of Beta-galactosidase (β-gal) (P00722 2-1024): as above

For RVFKRYKRWLHVSRYYFGSC, the β-gal activity inhibited [1] was 95%, the “binding to the β-gal enzyme” value (β-gal enzyme) was “binds strongly” and the “isoelectric point (pI)” value [2] was 10.6.
